According to article PMC10199097, “Molecular mechanism of hyperactivation conferred by a truncation of TRPA1” (Nature Communications, 2023):

B1: R919* human TRPA1 mutant (CRAMPT syndrome truncation) (domain or fragment, UniProt O75762 1-918, looked up)
chain: MKRSLRKMWRPGEKKEPQGVVYEDVPDDTEDFKESLKVVFEGSAYGLQNFNKQKKLKRCDDMDTFFLHYAAAEGQIELMEKITRDSSLEVLHEMDDYGNTPLHCAVEKNQIESVKFLLSRGANPNLRNFNMMAPLHIAVQGMNNEVMKVLLEHRTIDVNLEGENGNTAVIIACTTNNSEALQILLKKGAKPCKSNKWGCFPIHQAAFSGSKECMEIILRFGEEHGYSRQLHINFMNNGKATPLHLAVQNGDLEMIKMCLDNGAQIDPVEKGRCTAIHFAATQGATEIVKLMISSYSGSVDIVNTTDGCHETMLHRASLFDHHELADYLISVGADINKIDSEGRSPLILATASASWNIVNLLLSKGAQVDIKDNFGRNFLHLTVQQPYGLKNLRPEFMQMQQIKELVMDEDNDGCTPLHYACRQGGPGSVNNLLGFNVSIHSKSKDKKSPLHFAASYGRINTCQRLLQDISDTRLLNEGDLHGMTPLHLAAKNGHDKVVQLLLKKGALFLSDHNGWTALHHASMGGYTQTMKVILDTNLKCTDRLDEDGNTALHFAAREGHAKAVALLLSHNADIVLNKQQASFLHLALHNKRKEVVLTIIRSKRWDECLKIFSHNSPGNKCPITEMIEYLPECMKVLLDFCMLHSTEDKSCRDYYIEYNFKYLQCPLEFTKKTPTQDVIYEPLTALNAMVQNNRIELLNHPVCKEYLLMKWLAYGFRAHMMNLGSYCLGLIPMTILVVNIKPGMAFNSTGIINETSDHSEILDTTNSYLIKTCMILVFLSSIFGYCKEAGQIFQQKRNYFMDISNVLEWIIYTTGIIFVLPLFVEIPAHLQWQCGAIAVYFYWMNFLLYLQRFENCGIFIVMLEVILKTLLRSTVVFIFLLLAFGLSFYILLNLQDPFSSPLLSIIQTFSMMLGDINY
notes: human TRPA1 with the patients' nonsense mutation at R919 (c.2755C>T); lacks the final 201 of 1119 amino acids (second pore helix, S6 and the whole cytoplasmic C-terminus); also called R919* TRPA1; R919* hTRPA1; source: HEK293T, transfected, in lysate (in intact cells for proximity biotinylation)
B2: wild type (WT) human TRPA1 (Transient Receptor Potential Ankyrin subtype 1) (natural protein, UniProt O75762 1-1119, looked up)
chain: MKRSLRKMWRPGEKKEPQGVVYEDVPDDTEDFKESLKVVFEGSAYGLQNFNKQKKLKRCDDMDTFFLHYAAAEGQIELMEKITRDSSLEVLHEMDDYGNTPLHCAVEKNQIESVKFLLSRGANPNLRNFNMMAPLHIAVQGMNNEVMKVLLEHRTIDVNLEGENGNTAVIIACTTNNSEALQILLKKGAKPCKSNKWGCFPIHQAAFSGSKECMEIILRFGEEHGYSRQLHINFMNNGKATPLHLAVQNGDLEMIKMCLDNGAQIDPVEKGRCTAIHFAATQGATEIVKLMISSYSGSVDIVNTTDGCHETMLHRASLFDHHELADYLISVGADINKIDSEGRSPLILATASASWNIVNLLLSKGAQVDIKDNFGRNFLHLTVQQPYGLKNLRPEFMQMQQIKELVMDEDNDGCTPLHYACRQGGPGSVNNLLGFNVSIHSKSKDKKSPLHFAASYGRINTCQRLLQDISDTRLLNEGDLHGMTPLHLAAKNGHDKVVQLLLKKGALFLSDHNGWTALHHASMGGYTQTMKVILDTNLKCTDRLDEDGNTALHFAAREGHAKAVALLLSHNADIVLNKQQASFLHLALHNKRKEVVLTIIRSKRWDECLKIFSHNSPGNKCPITEMIEYLPECMKVLLDFCMLHSTEDKSCRDYYIEYNFKYLQCPLEFTKKTPTQDVIYEPLTALNAMVQNNRIELLNHPVCKEYLLMKWLAYGFRAHMMNLGSYCLGLIPMTILVVNIKPGMAFNSTGIINETSDHSEILDTTNSYLIKTCMILVFLSSIFGYCKEAGQIFQQKRNYFMDISNVLEWIIYTTGIIFVLPLFVEIPAHLQWQCGAIAVYFYWMNFLLYLQRFENCGIFIVMLEVILKTLLRSTVVFIFLLLAFGLSFYILLNLQDPFSSPLLSIIQTFSMMLGDINYRESFLEPYLRNELAHPVLSFAQLVSFTIFVPIVLMNLLIGLAVGDIAEVQKHASLKRIAMQVELHTSLEKKLPLWFLRKVDQKSTIVYPNKPRSGGMLFHIFCFLFCTGEIRQEIPNADKSLEMEILKQKYRLKDLTFLLEKQHELIKLIIQKMEIISETEDDDSHCSFQDRFKKEQMEQRNSRWNTVLRAVKAKTHHLEP
notes: human TRPA1, wild type, 1119 amino acids; Plasmid details are in the Supplementary Information; also called WT TRPA1; WT hTRPA1; source: HEK293T, transfected, in lysate (in intact cells for proximity biotinylation)

Tests used:
[1] = target: B2; assay: pull-down; FLAG-MBP-WT and Strep-MBP-R919* hTRPA1 co-transfected; lysates tandem purified for Strep- then FLAG-tagged proteins; eluates probed with anti-MBP antibody, band intensities normalised to WT; conditions: partners not purified
[2] = target: the molecule itself; assay: co-IP + SEC; GFP- and 3×FLAG-tagged subunits co-expressed in HEK293T cells; anti-FLAG immunoprecipitation, eluates analysed by fluorescence size exclusion chromatography (FSEC) of the GFP-tagged subunit; anti-FLAG blot of peak fractions

Binder	stoichiometry N [1]	stoichiometry N [2]
B1	1.3 R919* subunits per WT subunit	–
B2	–	4
